B1: Nucleoporin NIC96 (Chaetomium thermophilum (strain DSM 1495 / CBS 144.50 / IMI 039719)), G0S024 (parent)
chain: MSLIGNGPSVPPSSTKASLFSSPTTSANPTGGLFGSTTGGSSLFAPKTAGSTTTSTTQPTSTTGLGTSLFGTSTTANTQNTANAARPSLFTAGNSIFGTSTTQPGLGASSLTTAATSNQQAQQQQQQRQQHQQAAPTGALFDSLLARNKKQAEGETALGELPSLQLGLADLRQRLRKLGPSSDRPIEPGKAHYFLAASGVDPGAAVRDLGALGLQAKTERTAASVGPAAGPSGVSTTGFGTGLGEVDVDTYLSNLQTKTTLSMIADGLERSARDFDAFLEENVTLEWEAQRKRIYQHFGIKPRDSSVAGTTTAQPTATPSKDGQGTFGRSRRKASQPPPGERPAQRMSILGRSTMMRSVIGTPTRIGAHAPEFSDVEARKDSSGAAVASVDDRFLREKQAKLAEKIREFNDARQRGTPFYICRDLADLESKSGDRHGPHIVEAYRAVMEMVGEHPDAGEAPRERQFAKMYLDPNTQSANALAMRKQILKGATTFLEKQFWNEVNSLIAKYPQDANLGGLPDVVSKIKAYIRLRIARKTLVPDNVELQQINGEYVWAIVFYLLRAGFVTEAAQYVNSNQAHFRAIDRTFSGYINSYASSEERRLKRQMQDRCMSEYNQRIRNAPEGSIDPFRMACYKIIGRCDLSNRSLDGLQTDVNDWIWLQFNLARETDRSLELAGESYGLAELQASIREIGLKHFPKTAAEDTNGSFGMFFYLQILAGMFEQAIAYLYPFSYVDAVHFAIALTYYGLLRPVDAASAGNELLSHNTRSMPQINFGRMLGYYTRDFRAANPAAAVDYLVLICLNADEAAGGQQAQAALCHEALRELVLESREFSRLIGDIRPDGRRIRGVIEERGPLIALGQEDDFIRTITLQAASFADDNGRTTDAVLLYHLAEDYDTVVSIVSRALSEAISLEIGEDPMRLIPVKPRVTNAEGQVEEAAPGSSLSLAAIDDPVELAKAMMGMYERDHMFWQKIREPNRVACSVLLQMADIKSLVEQGRWAECLDKIRALDILPLTARGDPGTIRSYAARFPSLAQPVAINVPNLLMWTVLCCMRQRERLAGGQFAGNESTARLMMDELKQMTVDLMAYTSQLRYRLPPHLHEALARASAD

Variants of: B1
Conditions: with nu192_chatd NUP192, G0S4T0
Chain of nu192_chatd NUP192, G0S4T0 (G0S4T0 whole entry): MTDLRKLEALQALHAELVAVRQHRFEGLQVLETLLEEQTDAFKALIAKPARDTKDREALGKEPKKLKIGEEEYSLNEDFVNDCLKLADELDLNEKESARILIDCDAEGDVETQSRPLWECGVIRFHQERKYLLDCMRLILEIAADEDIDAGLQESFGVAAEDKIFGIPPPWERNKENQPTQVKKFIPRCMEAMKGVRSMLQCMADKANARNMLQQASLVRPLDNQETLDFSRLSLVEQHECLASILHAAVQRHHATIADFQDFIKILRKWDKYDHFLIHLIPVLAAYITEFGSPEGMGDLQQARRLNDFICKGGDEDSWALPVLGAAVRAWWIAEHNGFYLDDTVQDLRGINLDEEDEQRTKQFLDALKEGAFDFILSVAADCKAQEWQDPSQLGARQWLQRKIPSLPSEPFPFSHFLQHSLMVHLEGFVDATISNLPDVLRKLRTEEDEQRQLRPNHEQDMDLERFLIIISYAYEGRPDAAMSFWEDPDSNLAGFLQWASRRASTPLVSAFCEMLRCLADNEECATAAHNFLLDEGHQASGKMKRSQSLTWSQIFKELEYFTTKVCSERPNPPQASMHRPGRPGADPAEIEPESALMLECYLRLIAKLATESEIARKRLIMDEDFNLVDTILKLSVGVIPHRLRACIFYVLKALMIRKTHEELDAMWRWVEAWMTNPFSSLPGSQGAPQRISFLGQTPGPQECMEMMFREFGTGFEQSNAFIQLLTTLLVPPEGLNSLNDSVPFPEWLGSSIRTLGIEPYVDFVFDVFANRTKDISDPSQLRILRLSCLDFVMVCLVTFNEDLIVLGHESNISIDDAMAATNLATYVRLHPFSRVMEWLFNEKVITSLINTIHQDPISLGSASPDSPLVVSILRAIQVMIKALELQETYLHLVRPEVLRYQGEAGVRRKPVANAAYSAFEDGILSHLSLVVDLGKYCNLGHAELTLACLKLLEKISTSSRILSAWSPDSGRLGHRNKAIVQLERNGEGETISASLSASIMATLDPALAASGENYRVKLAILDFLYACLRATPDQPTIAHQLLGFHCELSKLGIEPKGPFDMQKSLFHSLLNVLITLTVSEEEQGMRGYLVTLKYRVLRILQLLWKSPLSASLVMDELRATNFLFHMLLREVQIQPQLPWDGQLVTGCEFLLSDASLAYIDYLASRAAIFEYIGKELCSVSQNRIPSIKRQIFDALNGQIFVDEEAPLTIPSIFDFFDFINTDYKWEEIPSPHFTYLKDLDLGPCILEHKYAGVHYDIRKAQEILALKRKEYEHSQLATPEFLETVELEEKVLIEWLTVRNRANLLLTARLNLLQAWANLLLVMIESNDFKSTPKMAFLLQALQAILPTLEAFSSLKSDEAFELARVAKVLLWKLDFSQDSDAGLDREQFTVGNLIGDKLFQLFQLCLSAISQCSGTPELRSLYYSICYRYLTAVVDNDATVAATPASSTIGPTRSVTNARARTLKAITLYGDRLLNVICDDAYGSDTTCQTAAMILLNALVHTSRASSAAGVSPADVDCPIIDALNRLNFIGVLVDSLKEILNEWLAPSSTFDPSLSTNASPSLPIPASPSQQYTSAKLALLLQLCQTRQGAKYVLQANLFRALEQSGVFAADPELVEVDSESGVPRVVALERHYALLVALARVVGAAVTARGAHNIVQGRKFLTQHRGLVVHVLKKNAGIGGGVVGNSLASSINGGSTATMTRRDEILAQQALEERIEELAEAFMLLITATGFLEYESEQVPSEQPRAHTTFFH

Variant	effect of a mutation on the interaction
Y251A;I264A;F275A;W287A	decreasing interaction

From IntAct's records for PubMed 21784248
